We go through 36 variants from the Human Domainome abundance scans (Beltran et al. 2025).

B1: Steroid hormone receptor ERR2, residues 100 to 176; numbered along this chain, O95718 (parent)
chain: KRLCLVCGDIASGYHYGVASCEACKAFFKRTIQGNIEYSCPATNECEITKRRRKSCQACRFMKCLKVGMLKEGVRLD

± gives the uncertainty stated by the source.

The variants in the data set derive from B1. In words: abundance fitness (aPCA) (normalised: wild type 0, dead -1); higher = more abundant; growth selection in yeast, the domain comes from the species named. Particulars: Homo sapiens.
On to KRLCLVCGDIASGYHYGVASCEACKAFFKRTIQGNIEYSCPATNECEITKRRRKSCQACLFMKCLKVGMLKEGVRLD [R60L], for which the abundance fitness is 0.183 ± 0.042.
The result for KRLCLVCGDIASGYHYGVASCEACKAFFKRTIQGNIEYSCPATNECEITKRRRKSCQACQFMKCLKVGMLKEGVRLD [R60Q] reads 0.173 ± 0.052; that for KRLCLVCGDIASGYHYGVASCEACKAFFKRTIQGNIEYSCPATNECEITKRRRKSCQACKFMKCLKVGMLKEGVRLD [R60K], 0.177 ± 0.055.
Take KRLCLVCGDIASGYHYGVASCEACKAFFKRTIQGNIEYSCPATNECEITKRRRKSCQACEFMKCLKVGMLKEGVRLD [R60E]: the abundance fitness is -0.764 ± 0.1.
With KRLCLVCGDIASGYHYGVASCEACKAFFKRTIQGNIEYSCPATNECEITKRRRKSCQACVFMKCLKVGMLKEGVRLD [R60V], the abundance fitness was -0.098 ± 0.044.
The result for KRLCLVCGDIASGYHYGVASCEACKAFFKRTIQGNIEYSCPATNECEITKRRRKSCQACAFMKCLKVGMLKEGVRLD [R60A] reads -0.031 ± 0.047; that for KRLCLVCGDIASGYHYGVASCEACKAFFKRTIQGNIEYSCPATNECEITKRRRKSCQACYFMKCLKVGMLKEGVRLD [R60Y], 0.279 ± 0.072; that for KRLCLVCGDIASGYHYGVASCEACKAFFKRTIQGNIEYSCPATNECEITKRRRKSCQACDFMKCLKVGMLKEGVRLD [R60D], -0.828 ± 0.18.
Turning to KRLCLVCGDIASGYHYGVASCEACKAFFKRTIQGNIEYSCPATNECEITKRRRKSCQACPFMKCLKVGMLKEGVRLD [R60P], the abundance fitness was -0.798 ± 0.15.
Take KRLCLVCGDIASGYHYGVASCEACKAFFKRTIQGNIEYSCPATNECEITKRRRKSCQACTFMKCLKVGMLKEGVRLD [R60T]: the abundance fitness worked out at 0.051 ± 0.057.
With KRLCLVCGDIASGYHYGVASCEACKAFFKRTIQGNIEYSCPATNECEITKRRRKSCQACFFMKCLKVGMLKEGVRLD [R60F] the figure was 0.211 ± 0.075; with KRLCLVCGDIASGYHYGVASCEACKAFFKRTIQGNIEYSCPATNECEITKRRRKSCQACMFMKCLKVGMLKEGVRLD [R60M], 0.108 ± 0.05; with KRLCLVCGDIASGYHYGVASCEACKAFFKRTIQGNIEYSCPATNECEITKRRRKSCQACHFMKCLKVGMLKEGVRLD [R60H], 0.254 ± 0.075.
Consider KRLCLVCGDIASGYHYGVASCEACKAFFKRTIQGNIEYSCPATNECEITKRRRKSCQACCFMKCLKVGMLKEGVRLD [R60C], for which the abundance fitness was 0.013 ± 0.066.
Regarding KRLCLVCGDIASGYHYGVASCEACKAFFKRTIQGNIEYSCPATNECEITKRRRKSCQACRTMKCLKVGMLKEGVRLD [F61T], the abundance fitness was -0.759 ± 0.15.
The result for KRLCLVCGDIASGYHYGVASCEACKAFFKRTIQGNIEYSCPATNECEITKRRRKSCQACRRMKCLKVGMLKEGVRLD [F61R] reads -0.487 ± 0.054; that for KRLCLVCGDIASGYHYGVASCEACKAFFKRTIQGNIEYSCPATNECEITKRRRKSCQACRVMKCLKVGMLKEGVRLD [F61V], -0.269 ± 0.053; that for KRLCLVCGDIASGYHYGVASCEACKAFFKRTIQGNIEYSCPATNECEITKRRRKSCQACRAMKCLKVGMLKEGVRLD [F61A], -0.444 ± 0.077.
Turning to KRLCLVCGDIASGYHYGVASCEACKAFFKRTIQGNIEYSCPATNECEITKRRRKSCQACREMKCLKVGMLKEGVRLD [F61E], the abundance fitness is -0.892 ± 0.17.
With KRLCLVCGDIASGYHYGVASCEACKAFFKRTIQGNIEYSCPATNECEITKRRRKSCQACRCMKCLKVGMLKEGVRLD [F61C] the figure was -1.06 ± 0.26.
KRLCLVCGDIASGYHYGVASCEACKAFFKRTIQGNIEYSCPATNECEITKRRRKSCQACRQMKCLKVGMLKEGVRLD [F61Q]: the abundance fitness was -0.257 ± 0.096.
Turning to KRLCLVCGDIASGYHYGVASCEACKAFFKRTIQGNIEYSCPATNECEITKRRRKSCQACRNMKCLKVGMLKEGVRLD [F61N], the abundance fitness is -0.541 ± 0.3.
Take KRLCLVCGDIASGYHYGVASCEACKAFFKRTIQGNIEYSCPATNECEITKRRRKSCQACRKMKCLKVGMLKEGVRLD [F61K]: the abundance fitness was -0.266 ± 0.089.
Take KRLCLVCGDIASGYHYGVASCEACKAFFKRTIQGNIEYSCPATNECEITKRRRKSCQACRDMKCLKVGMLKEGVRLD [F61D]: the abundance fitness is -1.06 ± 0.32.
In the case of KRLCLVCGDIASGYHYGVASCEACKAFFKRTIQGNIEYSCPATNECEITKRRRKSCQACRIMKCLKVGMLKEGVRLD [F61I], the abundance fitness is -0.074 ± 0.088.
As to KRLCLVCGDIASGYHYGVASCEACKAFFKRTIQGNIEYSCPATNECEITKRRRKSCQACRMMKCLKVGMLKEGVRLD [F61M], the abundance fitness stood at 0 ± 0.063.
Consider KRLCLVCGDIASGYHYGVASCEACKAFFKRTIQGNIEYSCPATNECEITKRRRKSCQACRWMKCLKVGMLKEGVRLD [F61W], for which the abundance fitness amounted to 0.125 ± 0.047.
Regarding KRLCLVCGDIASGYHYGVASCEACKAFFKRTIQGNIEYSCPATNECEITKRRRKSCQACRGMKCLKVGMLKEGVRLD [F61G], the abundance fitness is -0.602 ± 0.056.
With KRLCLVCGDIASGYHYGVASCEACKAFFKRTIQGNIEYSCPATNECEITKRRRKSCQACRPMKCLKVGMLKEGVRLD [F61P] the figure was -1.29 ± 0.38; with KRLCLVCGDIASGYHYGVASCEACKAFFKRTIQGNIEYSCPATNECEITKRRRKSCQACRSMKCLKVGMLKEGVRLD [F61S], -0.509 ± 0.088; with KRLCLVCGDIASGYHYGVASCEACKAFFKRTIQGNIEYSCPATNECEITKRRRKSCQARRFMKCLKVGMLKEGVRLD [C59R], -0.755 ± 0.074.
With KRLCLVCGDIASGYHYGVASCEACKAFFKRTIQGNIEYSCPATNECEITKRRRKSCQATRFMKCLKVGMLKEGVRLD [C59T] the figure was -0.872 ± 0.15; with KRLCLVCGDIASGYHYGVASCEACKAFFKRTIQGNIEYSCPATNECEITKRRRKSCQASRFMKCLKVGMLKEGVRLD [C59S], -0.887 ± 0.13.
As to KRLCLVCGDIASGYHYGVASCEACKAFFKRTIQGNIEYSCPATNECEITKRRRKSCQAYRFMKCLKVGMLKEGVRLD [C59Y], the abundance fitness is -0.745 ± 0.27.
For KRLCLVCGDIASGYHYGVASCEACKAFFKRTIQGNIEYSCPATNECEITKRRRKSCQAVRFMKCLKVGMLKEGVRLD [C59V], the abundance fitness was -0.576 ± 0.066.
On to KRLCLVCGDIASGYHYGVASCEACKAFFKRTIQGNIEYSCPATNECEITKRRRKSCQAWRFMKCLKVGMLKEGVRLD [C59W], for which the abundance fitness is -0.684 ± 0.11.
